Residue numbers refer to the chain shown, from its start. Names may count otherwise.
T1: PUF4 RNA-binding domain (Saccharomyces cerevisiae, UniProt P25339 537-888)
T1 sequence: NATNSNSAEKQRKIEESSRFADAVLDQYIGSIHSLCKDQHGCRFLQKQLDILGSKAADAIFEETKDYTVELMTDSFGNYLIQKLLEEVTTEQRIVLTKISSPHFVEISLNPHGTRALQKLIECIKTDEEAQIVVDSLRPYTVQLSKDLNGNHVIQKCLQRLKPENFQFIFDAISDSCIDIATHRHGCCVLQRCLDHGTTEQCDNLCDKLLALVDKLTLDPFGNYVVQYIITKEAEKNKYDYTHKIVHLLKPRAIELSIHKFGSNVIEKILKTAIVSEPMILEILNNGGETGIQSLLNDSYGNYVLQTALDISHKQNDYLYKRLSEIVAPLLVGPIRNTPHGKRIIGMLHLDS

B1: Ic_S4_P4E.1_K4.1_C4.1_H4.1_A4.1_[T5C]_[A6T]_[T7G]_F4.1_[T8C]_[A9G]_T4.1 (ssRNA)
RNA: UUUGACAACUGAUCGUUCUUUCUUGUACUGCGUUCUUUCUCGAUCAGUUGUCUUU
B2: Ic_S4_P4E.1_K4.1_C4.1_H4.1_A4.1_[T5C]_[T7G]_F4.1_[A9G]_T4.1 (ssRNA)
RNA: B1 RNA with U29A, C31U
B3: Ic_S4_P4E.1_K4.1_C4.1_H4.1_A4.1_[T5C]_[A6T]_[T7C]_F4.1_[T8G]_[A9T]_T4.1 (ssRNA)
RNA: B1 RNA with G30C, C31G, G32U
B4: Ic_S4_P4E.1_K4.1_C4.1_H4.1_A4.1_[T5C]_F4.1_[T8A]_T4.1 (ssRNA)
RNA: B1 RNA with U29A, G30U, C31A, G32A
B5: Ic_S4_P4E.1_K4.1_C4.1_H4.1_A4.1_[T5A]_[A6C]_[T7G]_F4.1_[A9T]_T4.1 (ssRNA)
RNA: B1 RNA with C28A, U29C, C31U, G32U
B6: Ic_S4_P4E.1_K4.1_C4.1_H4.1_A4.1_[T5C]_[A6T]_[T7G]_F4.1_[A9T]_T4.1 (ssRNA)
RNA: B1 RNA with C31U, G32U
B7: Ic_S4_P4E.1_K4.1_C4.1_H4.1_A4.1_[T5C]_[T7C]_F4.1_[T8A]_T4.1 (ssRNA)
RNA: B1 RNA with U29A, G30C, C31A, G32A
B8: Ic_S4_P4E.1_K4.1_C4.1_H4.1_A4.1_[T5A]_[A6C]_[T7G]_F4.1_[A9C]_T4.1 (ssRNA)
RNA: B1 RNA with C28A, U29C, C31U, G32C
B9: Ic_S4_P4E.1_K4.1_C4.1_H4.1_A4.1_[T5C]_[A6T]_[T7C]_F4.1_[T8C]_[A9C]_T4.1 (ssRNA)
RNA: B1 RNA with G30C, G32C
B10: Ic_S4_P4E.1_K4.1_C4.1_H4.1_A4.1_[T5C]_[A6T]_[T7A]_F4.1_[T8C]_T4.1 (ssRNA)
RNA: B1 RNA with G30A, G32A
B11: Ic_S4_P4E.1_K4.1_C4.1_H4.1_A4.1_[T5C]_[A6T]_[T7A]_F4.1_[T8A]_[A9C]_T4.1 (ssRNA)
RNA: B1 RNA with G30A, C31A, G32C
B12: Ic_S4_P4E.1_K4.1_C4.1_H4.1_A4.1_[T5C]_[A6T]_[T7C]_F4.1_[T8C]_[A9G]_T4.1 (ssRNA)
RNA: B1 RNA with G30C
B13: Ic_S4_P4E.1_K4.1_C4.1_H4.1_A4.1_[T5C]_[T7A]_F4.1_[T8A]_T4.1 (ssRNA)
RNA: B1 RNA with U29A, G30A, C31A, G32A
B14: Ic_S4_P4E.1_K4.1_C4.1_H4.1_A4.1_[T5C]_[T7A]_F4.1_[T8C]_[A9T]_T4.1 (ssRNA)
RNA: B1 RNA with U29A, G30A, G32U
B15: Ic_S4_P4E.1_K4.1_C4.1_H4.1_A4.1_[T5C]_F4.1_[T8A]_[A9G]_T4.1 (ssRNA)
RNA: B1 RNA with U29A, G30U, C31A
B16: Ic_S4_P4E.1_K4.1_C4.1_H4.1_A4.1_[T5C]_[T7C]_F4.1_[A9T]_T4.1 (ssRNA)
RNA: B1 RNA with U29A, G30C, C31U, G32U
B17: Ic_S4_P4E.1_K4.1_C4.1_H4.1_A4.1_[T5C]_[A6T]_F4.1_[T8C]_[A9T]_T4.1 (ssRNA)
RNA: B1 RNA with G30U, G32U
B18: Ic_S4_P4E.1_K4.1_C4.1_H4.1_A4.1_[T5C]_[A6T]_[T7C]_F4.1_[T8A]_T4.1 (ssRNA)
RNA: B1 RNA with G30C, C31A, G32A
B19: Ic_S4_P4E.1_K4.1_C4.1_H4.1_A4.1_[T5C]_[A6T]_[T7A]_F4.1_[T8C]_[A9G]_T4.1 (ssRNA)
RNA: B1 RNA with G30A
B20: Ic_S4_P4E.1_K4.1_C4.1_H4.1_A4.1_[T5A]_[A6C]_[T7G]_F4.1_[T8G]_[A9T]_T4.1 (ssRNA)
RNA: B1 RNA with C28A, U29C, C31G, G32U
B21: Ic_S4_P4E.1_K4.1_C4.1_H4.1_A4.1_[T5C]_[A6T]_[T7C]_F4.1_[A9C]_T4.1 (ssRNA)
RNA: B1 RNA with G30C, C31U, G32C
B22: Ic_S4_P4E.1_K4.1_C4.1_H4.1_A4.1_[T5C]_F4.1_[T8C]_[A9T]_T4.1 (ssRNA)
RNA: B1 RNA with U29A, G30U, G32U
B23: Ic_S4_P4E.1_K4.1_C4.1_H4.1_A4.1_[T5C]_[A6T]_F4.1_[T8A]_[A9C]_T4.1 (ssRNA)
RNA: B1 RNA with G30U, C31A, G32C
B24: Ic_S4_P4E.1_K4.1_C4.1_H4.1_A4.1_[T5C]_[T7A]_F4.1_[A9C]_T4.1 (ssRNA)
RNA: B1 RNA with U29A, G30A, C31U, G32C
B25: Ic_S4_P4E.1_K4.1_C4.1_H4.1_A4.1_[T5C]_[T7A]_F4.1_[T8C]_[A9C]_T4.1 (ssRNA)
RNA: B1 RNA with U29A, G30A, G32C
B26: Ic_S4_P4E.1_K4.1_C4.1_H4.1_A4.1_[T5C]_[A6T]_F4.1_[A9T]_T4.1 (ssRNA)
RNA: B1 RNA with G30U, C31U, G32U
B27: Ic_S4_P4E.1_K4.1_C4.1_H4.1_A4.1_[T5C]_[T7G]_F4.1_[A9C]_T4.1 (ssRNA)
RNA: B1 RNA with U29A, C31U, G32C
B28: Ic_S4_P4E.1_K4.1_C4.1_H4.1_A4.1_[T5C]_[A6T]_F4.1_[T8C]_[A9C]_T4.1 (ssRNA)
RNA: B1 RNA with G30U, G32C
B29: Ic_S4_P4E.1_K4.1_C4.1_H4.1_A4.1_[T5A]_[A6C]_[T7G]_F4.1_[T8G]_[A9C]_T4.1 (ssRNA)
RNA: B1 RNA with C28A, U29C, C31G, G32C
B30: Ic_S4_P4E.1_K4.1_C4.1_H4.1_A4.1_[T5C]_[A6T]_[T7A]_F4.1_[A9C]_T4.1 (ssRNA)
RNA: B1 RNA with G30A, C31U, G32C
B31: Ic_S4_P4E.1_K4.1_C4.1_H4.1_A4.1_[T5C]_[T7C]_F4.1_[T8G]_[A9C]_T4.1 (ssRNA)
RNA: B1 RNA with U29A, G30C, C31G, G32C
B32: Ic_S4_P4E.1_K4.1_C4.1_H4.1_A4.1_[T5C]_[T7C]_F4.1_[T8C]_[A9G]_T4.1 (ssRNA)
RNA: B1 RNA with U29A, G30C
B33: Ic_S4_P4E.1_K4.1_C4.1_H4.1_A4.1_[T5C]_F4.1_[A9G]_T4.1 (ssRNA)
RNA: B1 RNA with U29A, G30U, C31U
B34: Ic_S4_P4E.1_K4.1_C4.1_H4.1_A4.1_[T5C]_[T7C]_F4.1_[T8A]_[A9G]_T4.1 (ssRNA)
RNA: B1 RNA with U29A, G30C, C31A
B35: Ic_S4_P4E.1_K4.1_C4.1_H4.1_A4.1_[T5C]_[T7G]_F4.1_[T8C]_[A9C]_T4.1 (ssRNA)
RNA: B1 RNA with U29A, G32C
B36: Ic_S4_P4E.1_K4.1_C4.1_H4.1_A4.1_[T5C]_[A6T]_[T7G]_F4.1_[T8C]_T4.1 (ssRNA)
RNA: B1 RNA with G32A
B37: Ic_S4_P4E.1_K4.1_C4.1_H4.1_A4.1_[T5C]_F4.1_[A9C]_T4.1 (ssRNA)
RNA: B1 RNA with U29A, G30U, C31U, G32C
B38: Ic_S4_P4E.1_K4.1_C4.1_H4.1_A4.1_[T5C]_[A6T]_[T7G]_F4.1_T4.1 (ssRNA)
RNA: B1 RNA with C31U, G32A
B39: Ic_S4_P4E.1_K4.1_C4.1_H4.1_A4.1_[T5C]_[T7G]_F4.1_[T8C]_[A9T]_T4.1 (ssRNA)
RNA: B1 RNA with U29A, G32U
B40: Ic_S4_P4E.1_K4.1_C4.1_H4.1_A4.1_[T5C]_[A6T]_F4.1_[A9C]_T4.1 (ssRNA)
RNA: B1 RNA with G30U, C31U, G32C
B41: Ic_S4_P4E.1_K4.1_C4.1_H4.1_A4.1_[T5C]_F4.1_[T8A]_[A9T]_T4.1 (ssRNA)
RNA: B1 RNA with U29A, G30U, C31A, G32U
B42: Ic_S4_P4E.1_K4.1_C4.1_H4.1_A4.1_[T5A]_[A6C]_[T7G]_F4.1_[T8C]_[A9T]_T4.1 (ssRNA)
RNA: B1 RNA with C28A, U29C, G32U
B43: Ic_S4_P4E.1_K4.1_C4.1_H4.1_A4.1_[T5C]_[A6T]_[T7A]_F4.1_[T8C]_[A9T]_T4.1 (ssRNA)
RNA: B1 RNA with G30A, G32U
B44: Ic_S4_P4E.1_K4.1_C4.1_H4.1_A4.1_[T5C]_F4.1_[T8G]_[A9C]_T4.1 (ssRNA)
RNA: B1 RNA with U29A, G30U, C31G, G32C
B45: Ic_S4_P4E.1_K4.1_C4.1_H4.1_A4.1_[T5C]_[A6T]_[T7C]_F4.1_[T8A]_[A9G]_T4.1 (ssRNA)
RNA: B1 RNA with G30C, C31A
B46: Ic_S4_P4E.1_K4.1_C4.1_H4.1_A4.1_[T5C]_[T7G]_F4.1_[T8C]_T4.1 (ssRNA)
RNA: B1 RNA with U29A, G32A
B47: Ic_S4_P4E.1_K4.1_C4.1_H4.1_A4.1_[T5C]_[A6T]_[T7A]_F4.1_[T8A]_T4.1 (ssRNA)
RNA: B1 RNA with G30A, C31A, G32A
B48: Ic_S4_P4E.1_K4.1_C4.1_H4.1_A4.1_[T5C]_[T7A]_F4.1_[T8G]_[A9C]_T4.1 (ssRNA)
RNA: B1 RNA with U29A, G30A, C31G, G32C
B49: Ic_S4_P4E.1_K4.1_C4.1_H4.1_A4.1_[T5A]_[A6C]_[T7G]_F4.1_T4.1 (ssRNA)
RNA: B1 RNA with C28A, U29C, C31U, G32A

Target: T1, PUF4 RNA-binding domain
Experiment: Mg; RNA-MaP; 20 mM Na-HEPES pH 7.4, 30 mM KOAc, 0.75 mM MgCl2, 0.1% Tween-20, 5% glycerol, 0.1 mg/mL BSA, 2 mM DTT; 25 C; 0.0125-409.6 nM protein
Settings: tags: N-His6-TEV cleaved; C-SNAP kept, Cy3B-labelled; label: tethered on chip by stalled RNA polymerase

| Binder | Kd |
| --- | --- |
| UCUCUUUGUAUCUGAUCUCUU (ssRNA) [Ic_S1_P4E.1_K4.1_C4.1_H4.1_A4.1_[A6C]_F4.1_[T8G]_T4.1] | 76.5 nM |
| UCUCUUUGUACAUAAUCUCUU (ssRNA) [Ic_S1_P4E.1_K4.1_C4.1_H4.1_A4.1_[T5C]_F4.1_[T8A]_T4.1] | 6.09 nM |
| UCUCUUUGUAUGUCAUCUCUU (ssRNA) [Ic_S1_P4E.1_K4.1_C4.1_H4.1_A4.1_[A6G]_F4.1_[T8C]_T4.1] | 384 nM |
| UCUCUUUGUAAAUCAUCUCUU (ssRNA) [Ib_S1_P4E.1_K4.1_C4.1_H4.1_A4.1_[T5A]_F4.1_[T8C]_T4.1] | 39.1 nM |
| B1 | 916 nM |
| B2 | 9.03 nM |
| B3 | 138 nM |
| B4 | 2.32 nM |
| B5 | 84.3 nM |
| B6 | 54.6 nM |
| B7 | 16.9 nM |
| B8 | 919 nM |
| B9 | 394 nM |
| B10 | 279 nM |
| B11 | 404 nM |
| B12 | 552 nM |
| B13 | 13.8 nM |
| B14 | 39.4 nM |
| B15 | 11 nM |
| B16 | 4.37 nM |
| B17 | 32.5 nM |
| B18 | 96.2 nM |
| B19 | 563 nM |
| B20 | 1290 nM |
| B21 | 23.3 nM |
| B22 | 11.1 nM |
| B23 | 108 nM |

| Binder | Kd |
| --- | --- |
| B24 | 22.1 nM |
| B25 | 99.9 nM |
| B26 | 6.37 nM |
| B27 | 22.9 nM |
| B28 | 94.5 nM |
| B29 | > 2300 nM |
| B30 | 15.8 nM |
| B31 | 90.1 nM |
| B32 | 72 nM |
| B33 | 3.85 nM |
| B34 | 270 nM |
| B35 | 89.4 nM |
| B36 | 786 nM |
| B37 | 3.55 nM |
| B38 | 3.86 nM |
| B39 | 55.1 nM |
| B40 | 13.1 nM |
| B41 | 1.55 nM |
| B42 | 205 nM |
| B43 | 58.3 nM |
| B44 | 14.3 nM |
| B45 | 819 nM |
| B46 | 69.5 nM |
| B47 | 21.7 nM |
| B48 | 700 nM |
| B49 | 14.5 nM |
| UCUCUUUGUAUUUGAUCUCUU (ssRNA) [Ib_S1_P4E.1_K4.1_C4.1_H4.1_A4.1_[A6T]_F4.1_[T8G]_T4.1] | 458 nM |

— PMC9352680, “A comprehensive thermodynamic model for RNA binding by the Saccharomyces cerevisiae Pumilio protein PUF4”
